Test results published in article PMC6102046 (Nature structural & molecular biology, 2017).
Where a chain is given by its changes, count along the chain named. Names and notes keep the numbering of the source.

B1: PERK LD (protein)
chain: AGRARGLPAPTAEAAFGLGAAAAPTSATRVPAAGAVAAAEVTVEDAEALPAAAGEQEPRGPEPDDETELRPRGRSLVIISTLDGRIAALDPENHGKKQWDLDVGSGSLVSSSLSKPEVFGNKMIIPSLDGALFQWDQDRESMETVPFTVESLLESSYKFGDDVVLVGGKSLTTYGLSAYSGKVRYICSALGCRQWDSDEMEQEEDILLLQRTQKTVRAVGPRSGNEKWNFSVGHFELRYIPDMETRAGFIESTFKPNENTEESKIISDVEEQEAAIMDIVIKVSVADWKVMAFSKKGGHLEWEYQFCTPIASAWLLKDGKVIPISLFDDTSYTSNDDVLEDEEDIVEAARGATENSVYLGMYRGQLYLQSSVRISEKFPSSPKALESVTNENAIIPLPTIKWKPLIHSPSRTPVLVGSDEFDKCLSNDKFSHEEYSNGALSILQYPYDNGYYLPYYKRERNKRSTQITVRFLDNPHYNKNIRKKD
B2: 6X His/T7-tagged PERK luminal domain (PERK-LD) (domain or fragment, UniProt Q9Z2B5 29-510, looked up)
chain: VAPARSLLAPASETVFGLGAAAAPTSAARVPAVATAEVTVEDAEALPAAAGEPESRATEPDDDVELRPRGRSLVIISTLDGRIAALDAENDGKKQWDLDVGSGSLVSSSLSKPEVFGNKMIIPSLDGDLFQWDRDRESMEAVPFTVESLLESSYKFGDDVVLVGGKSLITYGLSAYSGKLRYICSALGCRRWDSDEMEEEEDILLLQRTQKTVRAVGPRSGSEKWNFSVGHFELRYIPDMETRAGFIESTFKPGGNKEDSKIISDVEEQEATMLDTVIKVSVADWKVMAFSRKGGRLEWEYQFCTPIASAWLVRDGKVIPISLFDDTSYTASEEALGDEEDIVEAARGATENSVYLGMYRGQLYLQSSVRVSEKFPTSPKALESVNGENAIIPLPTIKWKPLIHSPSRTPVLVGSDEFDKCLSNDKYSHEEYSNGALSILQYPYDNGYYLPYYKRERNKRSTQITVRFLDSPHYSKNIRKKD
B3: His-tagged CNPY2 wild type (natural protein, UniProt Q9QXT0 21-182, looked up)
chain: RRSQDLHCGACRALVDELEWEIARVDPKKTIQMGSFRINPDGSQSVVEVPYARSEAHLTELLEEVCDRMKEYGEQIDPSTHRKNYVRVVSRNGESSELDLQGIRIDSDISGTLKFACESIVEEYEDELIEFFSREADNVKDKLCSKRTDLCDHALHRSHDEL
B4: His-tagged CNPY2 3C-A mutant (C28A, C31A, C86A) (natural protein, UniProt Q9QXT0 21-182, looked up)
chain: B3 chain with C8A, C11A, C66A

Columns and labels:
Test in all cases: ITC
CNPY2 [1] = target: T1, CNPY2 (UniProt Q9Y2B0)
T1 chain: B3 chain with C8A, C11A, R24Q, V65I, C66A, S90G, R157I

CNPY2 [2] = target: T2, CNPY2 (UniProt Q9Y2B0)
T2 chain: B3 chain with R24Q, V65I, S90G, R157I

[3] = target: B4
[4] = target: B3
[5] = target: B2

B1
Kd (CNPY2 [1]): 7.5 µM
Kd (CNPY2 [2]): 13.2 µM

B2
stoichiometry N [3]: 1.04
stoichiometry N [4]: 1.16

B3
Kd [5]: 13.2 µM

B4
Kd [5]: 7.5 µM
